According to article PMC6175577, “BRCT domains of the DNA damage checkpoint proteins TOPBP1/Rad4 display distinct specificities for phosphopeptide ligands” (eLife, 2018):
Substitutions are numbered along the chain they refer to. In names and notes the source's numbering stands. One block for each binder: values may come before it.

How the values were obtained:
Experiment in all cases: fluorescence polarisation
[1] = target: T1, Treslin pT969 fluorescein-labelled phosphopeptide; conditions: chain shown with the change; point at 40 µM protein; parent: est. 70; read off a plot
T1 chain: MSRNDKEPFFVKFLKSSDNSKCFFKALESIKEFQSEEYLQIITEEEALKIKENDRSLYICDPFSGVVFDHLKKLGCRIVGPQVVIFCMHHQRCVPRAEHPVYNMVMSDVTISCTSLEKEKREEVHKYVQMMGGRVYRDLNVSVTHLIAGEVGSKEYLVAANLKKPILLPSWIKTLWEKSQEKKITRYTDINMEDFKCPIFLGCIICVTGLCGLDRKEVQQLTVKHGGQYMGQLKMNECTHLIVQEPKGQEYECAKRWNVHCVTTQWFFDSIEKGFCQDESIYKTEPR

[2] = target: T2, Treslin pT969 fluorescein-labelled phosphopeptide; conditions: for response: chain shown with the change, point at 40 µM protein, parent: est. 70, read off a plot
T2 chain: GYGLTKSVAETPVHKQIS

[3] = target: T3, Treslin pS1001 fluorescein-labelled phosphopeptide; conditions: for response: chain shown with the change, point at 40 µM protein, parent: est. 83, read off a plot; for Kd: chain shown with the change;, parent: 0.60 ± 0.03 µM
T3 chain: GYGDIGVVEESPEKGDEI

[4] = target: T4, Mdb1 pT113 fluorescein-labelled phosphopeptide; conditions: chain shown with the change; point at 40 µM protein; parent: est. 140; read off a plot
T4 chain: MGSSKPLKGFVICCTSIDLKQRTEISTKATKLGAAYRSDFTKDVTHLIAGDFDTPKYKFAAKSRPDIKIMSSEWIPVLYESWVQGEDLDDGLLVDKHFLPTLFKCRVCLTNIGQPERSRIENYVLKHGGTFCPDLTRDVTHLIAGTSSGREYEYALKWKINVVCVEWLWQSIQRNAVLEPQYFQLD

[5] = target: T5, Mdb1 pT113 fluorescein-labelled phosphopeptide; conditions: chain shown with the change; point at 40 µM protein; parent: est. 140; read off a plot
T5 chain: T4 chain with K56E

[6] = target: T6, Treslin pS1001 fluorescein-labelled phosphopeptide; conditions: chain shown with the change; point at 40 µM protein; parent: est. 83; read off a plot
T6 chain: T1 chain

response [2]: 30 millidegrees
response [3]: 41 millidegrees
Kd [3]: 0.35 µM
B2: TOPBP1-BRCT0,1,2 segment, wild type (recombinant, fluorescence polarisation) K250E (protein)
chain: T1 chain with E155K

response [6]: 12 millidegrees
B6: TOPBP1-BRCT0,1,2 segment, wild type (recombinant, fluorescence polarisation) K155E; K250E (peptide)
chain: GYGDIGVVEESPEKGDEI

More lines, now with the values behind:

B1: TOPBP1-BRCT0,1,2 segment, wild type (recombinant, fluorescence polarisation) K155E; K250E (peptide)
chain: GYGLTKSVAETPVHKQIS
response [1]: 0 millidegrees

B3: TOPBP1-BRCT0,1,2 segment, wild type (recombinant, fluorescence polarisation) K155E (protein)
chain: T1 chain with E250K
response [2]: 46 millidegrees
Kd ([2]; chain shown with the change;, parent: 0.94 ± 0.06 µM): 1 µM
response [3]: 68 millidegrees
Kd [3]: 0.73 µM

B4: Rad4-BRCT1,2 segment, wild type (recombinant, fluorescence polarisation), P32372 K151E (peptide)
chain: GYGGVMTVPNTPQKPNLQ
response [4]: 92 millidegrees

B5: Rad4-BRCT1,2 segment, wild type (recombinant, fluorescence polarisation), P32372 K56E; K151E (peptide)
chain: GYGGVMTVPNTPQKPNLQ
response [5]: 30 millidegrees
